Test [1] deals with T1, human CD40 on cells (Raji cells; HEK-Blue CD40L cells; human dendritic cells) (human, UniProt P25942 21-277). The test can be described thus: cell-based or functional assay.
In test [2] the target is T2, human CD40 with C-terminal Flag tag on HEK293 cells (human, UniProt P25942 21-277).
T2 construct: whole, on cells; also called HEK293 cells highly expressing CD40; cell strain highly expressing human CD40
The test can be described thus: FACS, HEK293 cells transiently expressing human CD40. The method, then: The ability of the humanized antibodies to bind to cells highly expressing the human antigen protein CD40 was measured by FACS. HEK293 cells were transiently transfected with CD40 plasmids (CD40 cDNA ORF Clone, Human, C-[…] (Flag®) Tag; Sino Biological; HG10774-CF), yielding HEK293 cells highly expressing CD40. The resulting cells were resuspended in the flow cytometry staining buffer ([…]), and the test antibodies that had been serially diluted to different concentrations were added. After 1 h of incubation on ice, the cells were washed with PBS and centrifuged at 400 g for 5 min. A goat anti-human Fc antibody labeled with the fluorescent group Alexa Fluor 647 was added as a secondary antibody, and the cells were stained in an ice bath for 1 h. After two washes with PBS, the fluorescent signals on the cell surface were detected by FACS. The humanized antibodies of the present disclosure all have relatively high affinities for the cell strain highly expressing CD40.
On the technique in general: A flow cytometer gives signals particle by particle.

Another test deals with T3, human FAP on CHO cells (human, UniProt Q12884 1-760).
T3 construct: whole, on cells; also called CHO cell line overexpressing human FAP; CHOK1/FAP
The experiment in a line: FACS, CHOK1 cells stably expressing human FAP. On the procedure: (§1) In this experiment, the binding of the anti-FAP/CD40 bispecific antibodies to stably transfected strains of CHOK1 cells that highly express human FAP, cynomolgus monkey FAP and mouse FAP was measured by FACS.

For another test, the target named is T4, mouse FAP on CHOK1 cells (mouse, UniProt P97321 1-761).
T4 construct: whole, on cells; also called cell surface mouse FAP
T4 sequence (P97321 whole entry): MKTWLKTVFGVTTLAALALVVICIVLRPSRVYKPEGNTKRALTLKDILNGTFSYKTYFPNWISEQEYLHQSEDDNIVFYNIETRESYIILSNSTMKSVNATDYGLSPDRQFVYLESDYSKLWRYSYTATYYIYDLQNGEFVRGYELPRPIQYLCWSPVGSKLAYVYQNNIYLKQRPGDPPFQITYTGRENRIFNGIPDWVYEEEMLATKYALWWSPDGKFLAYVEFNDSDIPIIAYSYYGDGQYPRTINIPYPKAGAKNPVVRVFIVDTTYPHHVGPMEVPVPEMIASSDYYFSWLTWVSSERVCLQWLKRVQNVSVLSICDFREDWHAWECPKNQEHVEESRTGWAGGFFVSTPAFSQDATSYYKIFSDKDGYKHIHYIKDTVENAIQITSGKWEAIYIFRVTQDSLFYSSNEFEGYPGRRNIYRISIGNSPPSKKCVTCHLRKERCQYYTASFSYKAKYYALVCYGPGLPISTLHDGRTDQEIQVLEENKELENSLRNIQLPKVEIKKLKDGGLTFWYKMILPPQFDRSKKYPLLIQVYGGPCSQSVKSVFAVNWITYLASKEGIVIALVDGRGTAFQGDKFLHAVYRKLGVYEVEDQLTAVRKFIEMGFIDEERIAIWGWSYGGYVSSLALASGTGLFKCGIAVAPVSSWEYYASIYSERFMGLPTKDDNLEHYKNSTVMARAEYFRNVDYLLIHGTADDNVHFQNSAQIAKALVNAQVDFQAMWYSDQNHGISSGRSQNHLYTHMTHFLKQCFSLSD
The experiment in a line: FACS, CHOK1 cells stably expressing mouse FAP. The method, then: as §1

The target of test [3] is T1, human CD40 on cells (Raji cells; …). The test can be described thus: FACS, HEK-Blue CD40L cells expressing human CD40. On the procedure: (§2) The binding of the bispecific antibodies to cell surface CD40 was measured by FACS, including HEK-Blue™CD40L cells highly expressing human CD40 (Invivogen, Cat #hkb-cd40), and HEK293 cells that were transiently transfected with cynomolgus monkey CD40 plasmids (Sino Biological, cat #CG90970-UT) and thus made to highly express cynomolgus monkey CD40. […] See FIGS. 9A, 9B and 11 and Table 21 for details.

In test [4] the target is T5, cynomolgus monkey FAP on CHOK1 cells (cynomolgus monkey).
T5 construct: whole, on cells
The experiment in a line: FACS, CHOK1 cells stably expressing cynomolgus monkey FAP. On the procedure: as §1

For test [5], the target named is T6, cynomolgus monkey CD40 on HEK293 cells (cynomolgus monkey, UniProt G7PG38 21-278).
T6 construct: whole, on cells
The experiment in a line: FACS, HEK293 cells transiently expressing cynomolgus monkey CD40. On the procedure:
as §2

Test [6] has as its target T7, human FAP protein (Acro, FAP-H5244) (human, UniProt Q12884 26-760).
T7 construct: Bought protein
The experiment in a line: SPR (Biacore 8K), antibody captured by anti-human IgG Fc, human FAP analyte. On the procedure:
(§3) The affinities of the anti-FAP/CD40 bispecific antibodies for their antigens, the human FAP protein (Acro, FAP-H5244) and the human CD40 protein (Acro, CD0-H5228), were measured by SPR (GE Healthcare; Biacore 8K). A CM5 sensor chip was used, and HBS-EP+buffer solution (10 mM HEPES, 150 mM NaCl, 3 mM EDTA, 0.05% surfactant P20) was used as the mobile phase. An anti-human IgG (Fc) antibody was immobilized by amino coupling. The test antibodies were separately diluted in HBS-EP+buffer solution as ligands and captured by the anti-human IgG (Fc) antibody on chip channels. Antigenic proteins of different species were used as analytes.

The next test has as its target T8, h-CD40-His (human, UniProt P25942 21-193).
T8 construct: range 21-193; Bought His-tagged recombinant protein; also called human CD40 protein (Acro, CD0-H5228); human CD40
The test can be described thus: SPR (Biacore 8K), antibody captured by anti-human IgG Fc, human CD40 analyte. The method, then: as §3

These results are taken from patent US20250051467A1 (JIANGSU HENGRUI PHARMACEUTICALS, published 2025).

Numbering of substitutions follows the chain as printed. Numbers in names are those of the source.

As a reminder, the EC50 is the concentration at which the effect is half-maximal. The term Kd denotes a measure of binding affinity in units of concentration. Broadly, the koff is a measure of how fast the partners let go of each other. In general, kon refers to a measure of how fast the partners come together.

T1 sequence (P25942 21-277): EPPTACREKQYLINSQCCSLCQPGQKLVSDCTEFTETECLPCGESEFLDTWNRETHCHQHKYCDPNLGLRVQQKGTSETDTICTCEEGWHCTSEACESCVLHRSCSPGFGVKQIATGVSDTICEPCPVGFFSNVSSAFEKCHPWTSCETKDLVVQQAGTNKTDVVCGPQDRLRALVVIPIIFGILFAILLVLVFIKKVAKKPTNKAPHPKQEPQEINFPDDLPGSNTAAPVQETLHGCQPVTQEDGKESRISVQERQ
T8 sequence (P25942 21-193 limits assumed): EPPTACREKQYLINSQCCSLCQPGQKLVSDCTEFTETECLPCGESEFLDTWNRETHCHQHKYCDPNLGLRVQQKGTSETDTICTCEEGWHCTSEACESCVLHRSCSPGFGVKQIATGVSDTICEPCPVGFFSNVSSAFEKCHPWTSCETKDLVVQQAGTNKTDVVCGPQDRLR
T2 sequence (P25942 other isoform, or with tags, fused parts or gaps): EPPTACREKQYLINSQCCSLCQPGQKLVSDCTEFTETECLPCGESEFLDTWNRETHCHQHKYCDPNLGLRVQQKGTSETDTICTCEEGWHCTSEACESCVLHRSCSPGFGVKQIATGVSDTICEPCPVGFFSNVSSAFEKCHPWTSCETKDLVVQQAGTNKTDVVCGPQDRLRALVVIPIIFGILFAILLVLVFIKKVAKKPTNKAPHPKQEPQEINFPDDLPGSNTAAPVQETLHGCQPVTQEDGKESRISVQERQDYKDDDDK

B1: A297V3-Fc (Fc fusion)
chain: EVQLVESGGGLVQPGGSLRLSCAASGFTFSRYGMKWVRQAPGKGLEWVSTINSHGDTTYYADSVKGRFTISRDNAKNSLYLQMNSLRAEDTAVYYCLRIDYSDYSSRGQGTLVTVSSEPKSADKTHTCPPCPAPELLGGPSVFLFPPKPKDTLMISRTPEVTCVVVDVEHEDPEVKFNWYVDGVEVHNAKTKPREEQYNSTYRVVSVLTVLHQDWLNGKEYKCKVSSKAFPAPIEKTISKAKGQPREPQVYTLPPSRDELTKNQVSLTCLVKGFYPSDIAVEWESNGQPENNYKTTPPVLDSDGSFFLYSKLTVDKSRWQQGNVFSCSVMHEALHNHYTQKSLSLSPGK
Turning to B1, in test [1], the “FcγRIIb-mediated activation of HEK-Blue CD40L cells, EC50” value (“FcγRIIb-mediated activation … EC50” for short) came out at 0.006 nM and the “FcγRIIb-mediated activation of HEK-Blue CD40L cells, Emax (relative fluorescence intensity)” value is 12.8 relative fluorescence intensity. Besides, in test [2], the EC50 came out at 1.25 nM and the “Emax (MFI)” value came out at 12800 MFI.

B2: A12V2-Fc (Fc fusion)
chain: B1 chain with R31N, N52L, H54Q, D56G, T57S, V93L, I99V, Y101W, S106P, L112Q
B2: in [1], the “FcγRIIb-mediated activation … EC50” value amounted to 0.002 nM and the “FcγRIIb-mediated activation of HEK-Blue CD40L cells, Emax (relative fluorescence intensity)” value was 18.6 relative fluorescence intensity. Further, in [2], the midpoint of the response, the EC50, lay at 0.42 nM and the “Emax (MFI)” value is 16600 MFI.

B3: A297V4-Fc (Fc fusion)
chain: B1 chain with T57S, A75S, S78T, R98K
On to B3, for which, in test [1], the “FcγRIIb-mediated activation … EC50” value worked out at 0.038 nM and the “FcγRIIb-mediated activation of HEK-Blue CD40L cells, Emax (relative fluorescence intensity)” value is 13.3 relative fluorescence intensity. In addition, in test [2], the EC50 was 2.7 nM and the “Emax (MFI)” value was determined as 8260 MFI.

B4: A12V1-Fc (Fc fusion)
chain: EVQLVESGGGLVQPGGSLRLSCAASGFTFSNYGMKWVRQAPGKGLEWVSTILSQGGSTYYADSVKGRFTISRDNAKNSLYLQMNSLRAEDTALYYCARVDWSDYSPRGQGTMVTVSSEPKSADKTHTCPPCPAPELLGGPSVFLFPPKPKDTLMISRTPEVTCVVVDVEHEDPEVKFNWYVDGVEVHNAKTKPREEQYNSTYRVVSVLTVLHQDWLNGKEYKCKVSSKAFPAPIEKTISKAKGQPREPQVYTLPPSRDELTKNQVSLTCLVKGFYPSDIAVEWESNGQPENNYKTTPPVLDSDGSFFLYSKLTVDKSRWQQGNVFSCSVMHEALHNHYTQKSLSLSPGK
Take B4: in [1], the “FcγRIIb-mediated activation … EC50” value was determined as 0.009 nM and the “FcγRIIb-mediated activation of HEK-Blue CD40L cells, Emax (relative fluorescence intensity)” value is 21.6 relative fluorescence intensity. In addition, in [2], the response was half-maximal at 2.13 nM (EC50) and the “Emax (MFI)” value was 16600 MFI.

B5: A12V3-Fc (Fc fusion)
chain: B4 chain with L4V, A75S, S78T, L93V, A97L, M112Q
Take B5: in test [1], the “FcγRIIb-mediated activation … EC50” value stood at 0.011 nM and the “FcγRIIb-mediated activation of HEK-Blue CD40L cells, Emax (relative fluorescence intensity)” value is 19.1 relative fluorescence intensity. Further, in test [2], the response was half-maximal at 1.74 nM (EC50) and the “Emax (MFI)” value was 16900 MFI.

B6: A297V2-Fc (Fc fusion)
chain: B1 chain with E1Q, L11V, V93L, L112M
Consider B6, for which, in test [1], the “FcγRIIb-mediated activation … EC50” value came to 0.005 nM and the “FcγRIIb-mediated activation of HEK-Blue CD40L cells, Emax (relative fluorescence intensity)” value is 20 relative fluorescence intensity. In [2], the response was half-maximal at 1.07 nM (EC50) and the “Emax (MFI)” value came to 12800 MFI.

B7: A297V1-Fc (Fc fusion)
chain: B1 chain with E1Q, L11V, V93L, L97A, L112M
Consider B7, for which, in test [1], the “FcγRIIb-mediated activation … EC50” value worked out at 0.021 nM and the “FcγRIIb-mediated activation of HEK-Blue CD40L cells, Emax (relative fluorescence intensity)” value is 18.4 relative fluorescence intensity. Moreover, in [2], the 50% effective concentration (EC50) worked out at 1.11 nM and the “Emax (MFI)” value turned out to be 7300 MFI.

B8: Ab10-A12V2-2 (bispecific antibody, human IgG1, kappa, L234A L235A)
heavy: not shown
light: DIQMTQSPSSVSASVGDRVTITCRASQGISSWLAWYQQKPGKAPKLLIYAASSLQSGVPSRFSGSGSGTDFTLTISSLQPEDFATYYCQQANSFPPAFGQGTKVEIKRTVAAPSVFIFPPSDEQLKSGTASVVCLLNNFYPREAKVQWKVDNALQSGNSQESVTEQDSKDSTYSLSSTLTLSKADYEKHKVYACEVTHQGLSSPVTKSFNRGEC
notes: divalent for CD40
As to B8, the EC50 worked out at 2.72 nM with human FAP on CHO cells; 4.32 nM with mouse FAP on CHOK1 cells; 2.4 nM in test [3]; 5.65 nM in [4]; 2.76 nM in test [5]. In addition, the “Emax (MFI)” value with human FAP on CHO cells is 74000 MFI; with mouse FAP on CHOK1 cells, 19500 MFI; in [3], 7570 MFI; in [4] it was 45000 MFI; in test [5] it was 6610 MFI.

B9: Ab10-A12V2-4 (bispecific antibody, human IgG1, kappa, L234A L235A)
heavy: not shown
light: B8 light
notes: Ab10 IgG1 (L234A/L235A) with two A12V2 VHHs in tandem on each heavy chain C-terminus; tetravalent for CD40
With B9, the EC50 came out at 2.57 nM with human FAP on CHO cells; 4.43 nM in the test with mouse FAP on CHOK1 cells; 0.79 nM in test [3]; 2.26 nM in [4]; 3.24 nM in [5]. Moreover, the “Emax (MFI)” value in the test with human FAP on CHO cells worked out at 64900 MFI; with mouse FAP on CHOK1 cells, 19000 MFI; in [3] it was 4640 MFI; in test [4], 43200 MFI; in [5] it was 6540 MFI. Further, the dissociation constant Kd in test [6] came to 0.294 nM; in the test with h-CD40-His, 29 nM. For the same molecule, the koff in test [6] was determined as 5.14e-05 s⁻¹; with h-CD40-His, 0.002 s⁻¹. Also, the kon in test [6] came to 175000 M⁻¹ s⁻¹; with h-CD40-His, 69000 M⁻¹ s⁻¹.
